This note sets out measurements from IntAct's records for PubMed 19913487.

B1: ATP-dependent RNA helicase DDX3X (Homo sapiens), O00571 (parent)
chain: MSHVAVENALGLDQQFAGLDLNSSDNQSGGSTASKGRYIPPHLRNREATKGFYDKDSSGWSSSKDKDAYSSFGSRSDSRGKSSFFSDRGSGSRGRFDDRGRSDYDGIGSRGDRSGFGKFERGGNSRWCDKSDEDDWSKPLPPSERLEQELFSGGNTGINFEKYDDIPVEATGNNCPPHIESFSDVEMGEIIMGNIELTRYTRPTPVQKHAIPIIKEKRDLMACAQTGSGKTAAFLLPILSQIYSDGPGEALRAMKENGRYGRRKQYPISLVLAPTRELAVQIYEEARKFSYRSRVRPCVVYGGADIGQQIRDLERGCHLLVATPGRLVDMMERGKIGLDFCKYLVLDEADRMLDMGFEPQIRRIVEQDTMPPKGVRHTMMFSATFPKEIQMLARDFLDEYIFLAVGRVGSTSENITQKVVWVEESDKRSFLLDLLNATGKDSLTLVFVETKKGADSLEDFLYHEGYACTSIHGDRSQRDREEALHQFRSGKSPILVATAVAARGLDISNVKHVINFDLPSDIEEYVHRIGRTGRVGNLGLATSFFNERNINITKDLLDLLVEAKQEVPSWLENMAYEHHYKGSSRGRSKSSRFSGGFGARDYRQSSGASSSSFSSSRASSSRSGGGGHGSSRGFGGGGYGGFYNSDGYGGNYNSQGVDWWGN

The test covers variants of B1. Particulars: with pg044_vaccw OPG044, P68466.
F84A;F85A: the “effect of a mutation on the interaction” value was “disrupting interaction”.
